Data taken from a protein production outcome set (Wang et al. 2014).

Experiment: label from the status in PepcDB records
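Further: failed if final PepcDB status was selected cloned or expressed and not failed if soluble or beyond.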

In the case of “MNTKLTKIISGLFVATAAFQTASAGNITDIKVSSLPNKQKIVKVSFDKEIVNPTGFVTSSPARIALDFEQTGISMDQQVLEYADPLLSKISAAQNSSRARLVLNLNKPGQYNTEVRGNKVWIFINESDDTVSAPARPAVKAAPAAPAKQQAAAPSTKSAVSVSKPFTPAKQQAAAPFTESVVSVSAPFSPAKQQAAASAKQQTAAPAKQQAATPAKQTNIDFRKDGKNAGIIELAALGFAGQPDISQQHDHIIVTLKNHTLPTTLQRSLDVADFKTPVQKVTLKRLNNDTQLIITTAGNWELVNKSAAPGYFTFQVLPKKQNLESGGVNNAPKTFTGRKISLDFQDVEIRTILQILAKESGMNIVASDSVNGKMTLSLKDVPWDQALDLVMQARNLDMRQQGNIVNIAPRDELLAKDKAFLQAEKDIADLGALYSQNFQLKYKNVEEFRSILRLDNADTTGNRNTLVSGRGSVLIDPATNTLIVTDTRSVIEKFRKLIDELDVPAQQVMIEARIVEAADGFSRDLGVKFGATGKKKLKNDTSAFGWGVNSGFGGDDKWGAETKINLPITAAANSISLVRAISSGALNLELSASESLSKTKTLANPRVLTQNRKEAKIESGYEIPFTVTSIANGGSSTNTELKKAVLGLTVTPNITPDGQIIMTVKINKDSPAQCASGNQTILCISTKNLNTQAMVENGGTLIVGGIYEEDNGNTLTKVPLLGDIPVIGNLFKTRGKKTDRRELLIFITPRIMGTAGNSLRY”, the protein production is reported as “failed”.

With “MRWKYLVVLLIVILLASGCAEKSQGPGASAAFQEPESDTQDTEKTGNSEEGVHIDSVVFSRAGALLTLKDEAEISEIRVYSESEEIASQEIGKNKDNVFVSFNWDPEARYRFEVITGSGASGTIEAYAPSKPALKKEYTIELEDVTPGDIEKTSTNVEGALKFSPDSEYLAIGTNGGSLKLIKVATGEKVWEKQLVKGIADARIADIEFSEDGKRLFVGEESPDAFLYCFDLEGTEIWKYGAGKELGSDLKYMPAMKKIKLDSEGNIYVAASRACGYIGEKYKYLARIYSFDPEGNLRWKFPESEYMDSGVTWIDATPDGKYAVFGTTCFTETEKWREGTVHALNGNTGQEHWSYKIQPVEPFFDYSAIWYSTQITPDGEKLITMTSDGRAFLFNNSRIIETGTPEITWQQNISTPIVVSGVPIYGSANYAYIVNDTLIFSIGSTFSKDKNKDAPFEHPSGNSLFAYDYDGNLLWKWRVDGYAGECAVNDRYLVIPLAQNLVTEDRSVHGVYVFDASKSGGASSRLIQTYNTEGITVSADISPDGRYIAALEAPSRLDDGTVLGEYKVHILT” the protein production was “failed”.

In the case of “EAERVSVEHTSANPTGPLHIGRARNSIIGDSIYRILSRYGYRTVRQYFVNDSGKQMISLYTAYIKYGGPITIENLLENYQKIYREMEKDQSIEKEIEKNIERYENADPEVFGTLRKIAGVMLDGIASTLKRIGIEFDEFDWESDLLLNGSVRKAIDMLETKEEDSARYIEISGKKVFLTRKDGTTLYFARDIAYHLFKAENSEWIIDVLGEDHKDHAKSLNHVLKEMLKLENRVSFMYYSFITLETGKMSTRRGNIVTLQDLVDRTYDEALKIVNEKRPDLSEEERKKIAEVIASSAVRYSIIRVSAPKPITFRWEEALNFESNSAPFIMYS”, the protein production is reported as “failed”.

In the case of “MKKIRLSKFIKMIVVILFLISVAASFYFFHVAQVRDDKSFISNGQRKPGNSLYAYDKSFDKLLKQKIEMTNQNIKQVAWYVPAVKKTHKTAVVVHGFANSKENMKAYGWLFHKLGYNVLMPDNIAHGESHGQLIGYGWNDRENIIKWTEMIVDKNPSSQITLFGVSMGGATVMMASGEKLPSQVVNIIEDCGYSSVWDELKFQAKEMYGLPAFPLLYEVSTISKIRAGFSYGQASSVEQLKKNNLPALFIHGDKDNFVPTSMVYDNYKATAGKKELYIVKGAKHAKSFETEPEKYEKRISSFLKKYEK”, the protein production is reported as “failed”.

For “MDDNTPDLFAEPAAPEGDFLTLGRYAERQYLDYAVSVVKGRALPDVSDGQKPVQRRILYAMNEMGLGDNAKPVKSARVVGDVLGKYHPHGDQSAYDALVRLAQDFSMRYPLIDGQGNFGSRDGDGAAAMRYTEARLTPIAKLLLDEIDEGTVDFMPNYDGSFDEPKLLPARLPFVLLNGASGIAVGLATEIPSHNLREVAAAAVALIRHPALPHAELMQLVPGPDFPGGGQIISSDAEISAAYETGRGSLKVRARWKIEDLARGQWQLVVTELPPNTSCQKVLEEIEELTNPKLKAGKKTLTQEQINTKKTMLDLLDAVRDESGKDAPVRLVFEPKTRTIDQTEFVNSLLAHTSLESNAALNLVMIGEDGRPAQKGLASILGEWVRFRQATVTRRCRHRLGKVNDRIHILEGRMIVFLNIDEVIRIIREADEPKAALISAFGLTERQADDILEIRLRQLARLEKIKIEKELEELRAEKAKLEELLANESAMKRLMIKEIEADAKQYGDERRTLIQQEKRATFEAKVVDEPVTVVVSQKGWVRALKGHGLDPASFSFKAGDGLYAAFQCRTPDTLIAWGSTGRVYSVAVQVLPGGRGDGVPVTSLIELESGSHLLHYFAAPAEQPLLLASSNGFGFIAKIGDMVSRVKAGKSFMTIDTGAAPLAPMPVLPDASQVACLSSGGRLLVFGMDEMKTLSGGGRGVILMALDAKETLVQALAIDAAGVVLTGTGRGGKAQEEALAGGALEPHVGKRARKGRAPDTRLKVSGLRPVLG”, the protein production was “failed”.

In the case of “MLKRIFTVGGFTLLSRLTGFARDIMLAAILGAGPVADAFFVALRLPNHFRAIFAEGAFNAAFVPAYAHVHGEKGEASAKLFADRIFTLLFLSQLVLLAVALAFMPQMMSILAPGFTDDPEQRALAIELTRITFPYLLLITLVTLYGGILNVMQRFASAAAASIFLNISMMATLALAAFFPSAGHAAAWGVLISGVLQYFLLAGDLSLHGGLPRFARPKLDEDVRAFFRALGPATLGSMGTQLALFADTIIATFLPAGALSALYYADRLNQLPIGVIGIAIGTVLLPEMSRQLTAGDDAGAKASQRRAFEFTLLFSVPFVAAFLTVPDEIMRAMFARGAFTRADAISAGTTLAAYAIALIPFVLIRSAVAPFYARKDTATPVKAALTGVATNVVLKFALMGSLAQVGLALATAAGAWINLLLVIFFSVRAGYLEFDRELVRAILKFGIIGVLLGAALWLTAWLAPPYLALLPALRSEAALALLILVGAVIYGAAILILFGPRWIKRLLRG”, the protein production is reported as “failed”.

With “MHTLEQLRAGALTGIQALKLSENLTEVPAEVFQLADTLEILDLSGNRLHSLPQEMACLTRLRILFLSDNDFTIFPEVLKELKQLDMLGIKANNIQVIAEDAIPVSLRWLILTDNCIEALPVSIGRCTKLQKVMLAGNQLSGLPDELAACRNIELLRISANNMHTFPEVVKQLPRLAWLAYSSNPFQVNRSSFNALPVIAWENVALMEQLGAGASGIIYKARLNTGKSPEDVAVKVFKGAVTSDGLPEDEMTACMQAGRNSHLVSVLGVIGGHPEGMHGLVMELIPAEYKNLGRPPSFVTCTRDTFAAGTRFTAQQMLLILKGVAEAAKQLHDNGIMHGDLYAHNTLINEKYHSLFGDFGAATLYDKNNRDEAFFLERLDVRAFGCLADDLLQYSVCTKEDEWCLETLKRLSAGCMNEEPDKRPAFNTIVYELQLLQNTHLEHHHHHH” the protein production was “not failed”.

With “MIKVEKEVSNDYIIKGFKHFTQLATEYFQGHPDCNAARKRMRDTIDANLQLKAELTAASYTEHTTLLSPKMQQIIWAHWGPPIISLSENHANELEHHHHHH” the protein production was “failed”.

For “MFNKLVFKNLKLKKLSTSLVVVASLLVAQAPFANYAEAAGAEKVEKKKKRPTQLVGPRVGKKVQKAFEAYSADDIKGALVILLDIEASKPYDKAYVSRMVAVMYATLGDNDQKTIEYLKKALEPDILNEVDQSESLKLLGDMQMQTKDYKGALKSFYAWMDFSGKDDGPTYVKIANAYYSLKQLDKVIEPADKAIAAFGDKPNQNPYILKITSYYERKMYKEAVKVLETVIQVFPENKQWWTQLPMFYLLIEDYDKAVQTLDLAYKLGHLDKESQIKTLASLYSQTEAPYKAAQLLEKYIASGLVKRDDKNISTLANAWHSAQHIDKAASYYGELAKMTSDAKHYRKQGMLLKQDEQFSKAIVALNKAIELGVSNQGRIHMSIAESYFYLEKYKKAYAAIQKAMKDPSARKSAKGWKSFIVDTARRKNVTI”, the protein production was “failed”.

In the case of “MLLSYLIYGLRNGFMVTLGGIAGFVVGAIAAFMAVPLVSGWVTDSGWRLTATVGAAVVLIALGHGLGTMIGRKVRHTVRIKPLHAVDRLIGGVVSVVVAALVMSMLAFSISSLGVPFVSQQLAESRVIRYIDDLTPTPVKSTMAQLRSTVIGDGIPKLIEGIGPVTPVPVPNESTDTPALNQAAESVLKIAGTAFECGQNQTGSGFVVSPGRVVTNAHVVAGVSQPVVEVPDGGALPGRVVYFDSQRDIAVLAVDGLQSSPLPLSADLPAGSSAAFAGYPHGGPFQSKPATVQGISTILVPDIYGNNPSPEQVYKLAGDVQPGNSGGPLLTMQGQVAGLIFAKTTTDAALGFALTMADLEPVAAQAPGLSNPVSAGQCTRK”, the protein production is reported as “failed”.

In the case of “MIGKTVIVGSKNMKEKILKFITSKFFVLGIQLLATIAVVYFTFKLDLVPTKYLIAGIVVLALLLAGFFGIIYSSEQKIKKGLSSKRGIVTKIISLLTSIILIAGCTYISRGNNFIENVSNATGQEYVVSVISLKNGKITKLKDLDSSKKIGVSYEKDTVTIAEALKDLDTEIGDHEYTKYDNYASLADALYEGKVDAIVVGEQYRTMLQTNHEEFNDVTKVLKSYAYDAKMEVTTKQTDVTENAFSIYVTGIDVYGSLKTVSRSDVNLIVTVNPKTKQILMTSIPRDCQINLHKNGKMDKLTHTGIYGTSETINTIQDLLEMKINYFARTNFSGMTNIVDALGGITVNSSEAFETLHGNYQISEGLNEMDGDKALCFVRERKRLKRGDFARGENQQKVLKAMLDKAMSPKIITNFNNILSAVEGCFETDMSDKEIKSLINMQLNDMADWKIINVQIEGEYQLMDDTFSMKGTNSDVMIPFESHIERVRELINKVEEGKEIKDSELKGLTH”, the protein production is reported as “failed”.

With “MSSRPSRGAARLAAILDALPDALVLVNANGTVVNANTIALEAFETPGTALVGRGLLDLLPEFDSRLIPGSMRRPDSMDPRGRTKPTRMVARRTDGSEFPVEVTSANLENGQQAYDGYGYTGD” the protein production was “failed”.

With “MNFKESRAIYLQIADRICDDILLGQYEEEGRIPSVREYASIVEVNANTVMRSYEYLQSQEVIYNKRGIGFFVASGAKMLIHSLRKEQFLKEEVGSFFRQLYTLGISIKEIEKMYYEFIQRQNQ” the protein production was “not failed”.

In the case of “MSLAPWRGAIAHALHRNRSLVYARYLQLATVQPNGRPANRTLVFRGFLEDTNQLRFITDTRSAKADQIQQQPWAEICWYFPNTREQFRMAGDLTLISSDDSHQDLQPARIAMWQELSDAARLQFGWPYPGKPRIKESGAFEPSPPDPIEPVPNFCLLLLDPVQVDHLELRGEPQNRWLYHRNDQQEWSSEAINP”, the protein production is reported as “not failed”.

With “MAVYLDKEKPVSERVEDLLSKMTLAEKCGQLNQRMYGWEAFSRDGETFHITEKFKEEVTRFEGIGALYGLFRADPWSKMNKDTGVSRKNAGKVANKIQRYVIENTRLGIPVLLAEEVPHGHQALDSESYPVNLARAASFNPELQKQVASAITEEISEKGVHLALASALDILRDPRWGRAEECYGEDPYLAAELTAAITEGFQASGKIAVILKHFAAQGEPIGGHNSGPVSIGVRELREIFLEPMRAGIRSGALGVMAAYNEIDGVPCHANKELLTTILREEMGFSGIVMADGCALDRLLKLNPDPKKAAKMALEAGVDLSLWDEVFPFLEESVEKGILDEKVVDDAVRRVLQVKFQLGLFEQPFVEEEI” the protein production was “failed”.

For “NFTLAITEAVSEKEIYNKLAENLPKILQADRGSVTLITENKDEFEVFSLQGPEGMLSIGKYFSVDNSLAGLAVQQEKTIISKLNADRIEIDAQQLYQQDLLSIMNSPLQFSDRIIGTVNIGSYKENAYDSTSLELLTLVSTLVSNYLERQHLLEQAQIGVKQYKTYSKQLESLNHVAEELCAATNE”, the protein production was “failed”.

For “MKKIATATIATAGIATFGLAHQDADAAENNNGYNPNDPYSYSYTYTIDQQGNYHYEWQGNWSPSQAQQGGQQNTGNQAVNNTQSNNNYNYNYNNNQSNQNTQSYTANNNAGGGLGASYSTSDRNVKVTTQNAPTTQSTSSNASSSSSSEALAGKSSGGSNLYTAGQCTYYVYDKVGGKIGSTWGNANNWATAAAADGYTVNNTPKAGAVMQTSQGAYGHVAYVESVNDDGSVKVSEMNYNGGPGVVSSRTISAGQAGSYNYIS”, the protein production was “failed”.
